{"source": "patent US20060160761A1", "about": "“Regulation of vascular endothelium using BMX tyrosine kinase” (priority 1994, published 2006)", "molecules": {"B1": {"name": "VEGF-B: VEGF-B produced in Drosophila cells; ligand of Flt1 receptor (protein, UniProt P49765 22-207, looked up)", "Vascular endothelial growth …": "PVSQPDAPGHQRKVVSWIDVYTRATCQPREVVVPLTVELMGTVAKQLVPSCVTVQRCGGCCPDDGLECVPTGQHQVRMQILMIRYPSSQLGEMSLEEHSQCECRPKKKDSAVKPDRAATPHHRPQPRSVPGWDSAPGAPSPADITHPTPAPGPSAHAAPSTTSALTPGPAAAAADAAASSVAKGGA"}, "B2": {"name": "GCSF: GCSF growth factor (granulocyte growth factor), gift from Dr. Riitta Alitalo (protein)", "chain": "TPLGPASSLPQSFLLKCLEQVRKIQGDGAALQEKLCATYKLCHPEELVLLGHSLGIPWAPLSSCPSQALQLAGCLSQLHSGLFLYQGLLQALEGISPELGPTLDTLQLDVADFATTIWQQMEELGMAPALQPTQGAMPAFASAFQRRAGGVLVASHLQSFLEVSYRVLRHLAQP"}}, "key": {"[1]": {"system": "endogenous Bmx", "assay": "Kinase activity of endogenous Bmx immunoprecipitated from stimulated HUVECs, with or without PI-3 kinase inhibitors", "assay_type": "cell-based, human", "settings": "HUVECs starved overnight; hVEGF and VEGF-B 60 ng/ml for 5 min, IL-3 200 ng/ml for 30 min", "source_text": "The polyclonal antibody (Ab) against human Bmx was produced against the Tec Homology (TH) domain by Dr. Toshio Suda (amino acids 151-169, NH2-[…]—COOH (SEQ. ID. NO.: 4)). The monoclonal anti-hemagglutinin (HA)-epitope Ab, phosphotyrosine Ab, and anti-CD31 Ab were from Berkeley Antibody Company (Richmond, Calif.), from Transduction Laboratories and from DAKO, respectively. GCSF growth factor was a kind gift from Dr. Riitta Alitalo, while VEGF was obtained from R&D Systems, Minneapolis, Minn. VEGF-B was produced in Drosophila cells by Terhi Karpanen. Mouse IL-3 was obtained from Calbiochem Novabiochem. Phosphatidyl inositol-3 kinase inhibitors Wortmannin and LY294002, were both from Sigma. For inhibition of PI3K activity, 100 nM for 30 min of Wortmannin and 100 μM of LY294002 for 30 min, were used.\nCell culture and transfections. 293T cells were grown in Dulbecco's Modified Eagle's Medium (DMEM), Human umbilical vein endothelial cells (HUVECs) were maintained in Hy-clone 199 medium. […]\n(§1) In vitro substrate immunocomplex kinase assay was performed as follows. […] The filters were fixed and washed one time in 10% TCA 8% sodium pyrophosphate, 3 times in 5% TCA and 2 times in ethanol after which radioactivity was measured using Pharmacia Wallac 1410 Liquid Scintillation Counter. […] The gel was dried and Bmx autokinase activity was detected by exposure on film."}, "[2]": {"system": "Bmx", "assay": "In vitro substrate immunocomplex kinase assay of Bmx immunoprecipitated from stimulated BmxHA expressing 32Dcl3 cells", "assay_type": "cell-based, mouse", "settings": "BmxHA expressing 32Dcl3 pools, starved 14 hours in IL-3 and serum free media; IL-3 200 ng/ml for 30 min, hGCSF 100 ng/ml for 5 min; vs unstimulated", "experimental": "Cell culture and transfections. 293T cells were grown in Dulbecco's Modified Eagle's Medium (DMEM), Human umbilical vein endothelial cells (HUVECs) were maintained in Hy-clone 199 medium. […] All media were supplemented with 10% fetal calf serum, glutamine and antibiotics, the Hy-clone 199 medium additionally with endothelial cell growth supplement-ECGS (Upstate Biotechnology). Where indicated, cells were stimulated with growth factors, hGCSF 100 ng/ml, hVEGF and VEGF-B 60 ng/ml, for 5 min or with mIL-3 or hIL-3, 200 ng/ml, for 30 min.\nTransfections and generation of stable BmxHA and BmxHA K444R expressing pools (and clones). Transient co-transfections of293T cells were done using the Calcium Phosphate Transfection kit (GIBCO) according to manufacturer's instructions. The cells were transfected with Bmx-HA expression plasmid and the receptor plasmid or empty vector (PCI-Neo or pcDNAZ3.1) in the ration of 1:4. […]\nas §1"}}, "note": "Entries after “also recorded” stand apart in the source; their conditions may differ.", "data": [{"molecule": "VEGF", "values": [{"measurement": "endogenous Bmx kinase activity after stimulation", "setting": "[1]", "result": "increased endogenous Bmx activity; also recorded: activated"}]}, {"molecule": "B1", "values": [{"measurement": "endogenous Bmx kinase activity after stimulation", "setting": "[1]", "result": "increased endogenous Bmx activity; also recorded: activated"}]}, {"molecule": "B2", "values": [{"measurement": "increase of Bmx kinase activity", "setting": "[2]", "result": "around 1.7 fold"}]}]}
